The supplement of paper PMC12783771
± gives the standard deviation of the averaged measurements.

B1: library; numbered along this chain (parent)
chain: MNIQIGELAKRTACPVVTIRFYEQEGLLPPPGRSRGNFRLYGEEHVERLQFIRHCRSLDMPLSDVRTLLSYRKRPDQDCGEVNMLLDEHIRQVESRIGALLELKHHLVELREACSGARPAQSCGILQGLSDCVCDTRGTTAHPSD

Columns and labels:
[1] = variants of: B1; assay: sfGFP reporter fluorescence (15 h) (µM FITC); higher = higher leak; conditions: library round: Round 0; ligand: none
Procedure, shortened: (§1)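 Readout was endpoint sfGFP fluorescence, converted to µM FITC through standard curves. Reactions were 1 μL of BL21 Star (DE3) PANOx-SP extract with pPbrR-sfGFP reporter, 30 μg/mL GamS and linear PbrR templates normalized to 5 nM, containing 1 µM lead chloride, 30 µM zinc acetate or no metal. Incubation lasted 15 hr at 30 °C, with up to three biological replicates.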

[2] = variants of: B1; assay: sfGFP reporter fluorescence (15 h) (µM FITC); higher = stronger transcriptional activation; conditions: library round: Round 0
Procedure, shortened: as §1

Variant	sfGFP reporter fluorescence [1]	sfGFP reporter fluorescence ([2]; ligand: 1 µM Pb)	sfGFP reporter fluorescence ([2]; ligand: 30 µM Zn)
MNIQIGELAKRTACPVVTIRFYEQEGLLPPPGRSRGNFRLDGEEHVERLQFIRHCRSLDMPLSDVRTLLSYRKRPDQDCGEVNMLLDEHIRQVESRIGALLELKHHLVELREACSGARPAQSCGILQGLSDCVCDTRGTTAHPSD [Y41D]	0.0601 ± 0.001	0.0607 ± 0.00078	0.0621 ± 0.0023
MNIQIGELAKRTACPVVTIRFYEQEGLLPPPGRSRGNFRLEGEEHVERLQFIRHCRSLDMPLSDVRTLLSYRKRPDQDCGEVNMLLDEHIRQVESRIGALLELKHHLVELREACSGARPAQSCGILQGLSDCVCDTRGTTAHPSD [Y41E]	0.0607 ± 0.00078	0.0625 ± 0.00078	0.0619 ± 0.0015
MNIQIGELAKRTACPVVTIRFYEQEGLLPPPGRSRGNFRLFGEEHVERLQFIRHCRSLDMPLSDVRTLLSYRKRPDQDCGEVNMLLDEHIRQVESRIGALLELKHHLVELREACSGARPAQSCGILQGLSDCVCDTRGTTAHPSD [Y41F]	0.0572 ± 0.0031	0.1001 ± 0.00052	1.19 ± 0.041
MNIQIGELAKRTACPVVTIRFYEQEGLLPPPGRSRGNFRLGGEEHVERLQFIRHCRSLDMPLSDVRTLLSYRKRPDQDCGEVNMLLDEHIRQVESRIGALLELKHHLVELREACSGARPAQSCGILQGLSDCVCDTRGTTAHPSD [Y41G]	0.0563 ± 0.00078	0.0564 ± 0.001	0.0579 ± 0.0026
MNIQIGELAKRTACPVVTIRFYEQEGLLPPPGRSRGNFRLHGEEHVERLQFIRHCRSLDMPLSDVRTLLSYRKRPDQDCGEVNMLLDEHIRQVESRIGALLELKHHLVELREACSGARPAQSCGILQGLSDCVCDTRGTTAHPSD [Y41H]	0.0599 ± 0.0029	0.0618 ± 0.0023	0.0678 ± 0.0026
MNIQIGELAKRTACPVVTIRFYEQEGLLPPPGRSRGNFRLIGEEHVERLQFIRHCRSLDMPLSDVRTLLSYRKRPDQDCGEVNMLLDEHIRQVESRIGALLELKHHLVELREACSGARPAQSCGILQGLSDCVCDTRGTTAHPSD [Y41I]	0.0575 ± 0.0015	0.0572 ± 0.0021	0.0623 ± 0.0031
MNIQIGELAKRTACPVVTIRFYEQEGLLPPPGRSRGNFRLKGEEHVERLQFIRHCRSLDMPLSDVRTLLSYRKRPDQDCGEVNMLLDEHIRQVESRIGALLELKHHLVELREACSGARPAQSCGILQGLSDCVCDTRGTTAHPSD [Y41K]	0.06047 ± 0.00052	0.061 ± 0.0029	0.0621 ± 0.0018
